From patent US20180071366A1
Numbered stars: 1 amine (or outer) side, 2 acyl side, 3 side chain; on linkers, the order of the positions; unused ones are H or OH. Bridge positions count the residues as written; N and C are the ends. Square brackets hold non-standard residues; d marks the D form. * marks the point of attachment. C20 diacid = O=C(O)CCCCCCCCCCCCCCCCCCC(=O)*; γGlu = O=C(O)[C@H](CCC(=O)[*:2])N[*:1]; Hyp = O=C(O)[C@@H]1C[C@@H](O)CN1; NMeI = CC[C@H](C)[C@H](NC)C(=O)O; Aad = N[C@@H](CCCC(=O)O)C(=O)O; Orn = NCCC[C@H](N)C(=O)O; Sar = CNCC(=O)O

B1: Compound 29 (peptide)
peptide: {C20 diacid-γGlu}-RDPTATKATERLA[Aad]FLQRSSF[Sar]A[NMeI]LSSTEVGSNT[Hyp]-NH2
modifications: lactam 2-7
SMILES: CC[C@H](C)[C@@H](C(=O)N[C@@H](CC(C)C)C(=O)N[C@@H](CO)C(=O)N[C@@H](CO)C(=O)N[C@H](C(=O)N[C@@H](CCC(=O)O)C(=O)N[C@H](C(=O)NCC(=O)N[C@@H](CO)C(=O)N[C@@H](CC(N)=O)C(=O)N[C@H](C(=O)N1C[C@H](O)C[C@H]1C(N)=O)[C@@H](C)O)C(C)C)[C@@H](C)O)N(C)C(=O)[C@H](C)NC(=O)CN(C)C(=O)[C@H](Cc1ccccc1)NC(=O)[C@H](CO)NC(=O)[C@H](CO)NC(=O)[C@H](CCCNC(=N)N)NC(=O)[C@H](CCC(N)=O)NC(=O)[C@H](CC(C)C)NC(=O)[C@H](Cc1ccccc1)NC(=O)[C@H](CCCC(=O)O)NC(=O)[C@H](C)NC(=O)[C@H](CC(C)C)NC(=O)[C@H](CCCNC(=N)N)NC(=O)[C@H](CCC(=O)O)NC(=O)[C@@H](NC(=O)[C@H](C)NC(=O)[C@@H]1CCCCNC(=O)C[C@H](NC(=O)[C@H](CCCNC(=N)N)NC(=O)CC[C@H](NC(=O)CCCCCCCCCCCCCCCCCCC(=O)O)C(=O)O)C(=O)N2CCC[C@H]2C(=O)N[C@@H]([C@@H](C)O)C(=O)N[C@@H](C)C(=O)N[C@@H]([C@@H](C)O)C(=O)N1)[C@@H](C)O
B2: Compound 30 (peptide)
peptide: {C20 diacid-γGlu}-EDGTATKATERLA[Aad]FLQRSSF[Sar]A[NMeI]PSSTEVGSNT[Hyp]-NH2
modifications: lactam 2-7
SMILES: CC[C@H](C)[C@@H](C(=O)N1CCC[C@H]1C(=O)N[C@@H](CO)C(=O)N[C@@H](CO)C(=O)N[C@H](C(=O)N[C@@H](CCC(=O)O)C(=O)N[C@H](C(=O)NCC(=O)N[C@@H](CO)C(=O)N[C@@H](CC(N)=O)C(=O)N[C@H](C(=O)N1C[C@H](O)C[C@H]1C(N)=O)[C@@H](C)O)C(C)C)[C@@H](C)O)N(C)C(=O)[C@H](C)NC(=O)CN(C)C(=O)[C@H](Cc1ccccc1)NC(=O)[C@H](CO)NC(=O)[C@H](CO)NC(=O)[C@H](CCCNC(=N)N)NC(=O)[C@H](CCC(N)=O)NC(=O)[C@H](CC(C)C)NC(=O)[C@H](Cc1ccccc1)NC(=O)[C@H](CCCC(=O)O)NC(=O)[C@H](C)NC(=O)[C@H](CC(C)C)NC(=O)[C@H](CCCNC(=N)N)NC(=O)[C@H](CCC(=O)O)NC(=O)[C@@H](NC(=O)[C@H](C)NC(=O)[C@@H]1CCCCNC(=O)C[C@H](NC(=O)[C@H](CCC(=O)O)NC(=O)CC[C@H](NC(=O)CCCCCCCCCCCCCCCCCCC(=O)O)C(=O)O)C(=O)NCC(=O)N[C@@H]([C@@H](C)O)C(=O)N[C@@H](C)C(=O)N[C@@H]([C@@H](C)O)C(=O)N1)[C@@H](C)O
B3: Compound 31 (peptide)
peptide: {C20 diacid-γGlu}-RDGTATKATERLA[Aad]FLQRAAF[Sar]A[NMeI]LSSTEVGSNT[Hyp]-NH2
modifications: lactam 2-7
SMILES: CC[C@H](C)[C@@H](C(=O)N[C@@H](CC(C)C)C(=O)N[C@@H](CO)C(=O)N[C@@H](CO)C(=O)N[C@H](C(=O)N[C@@H](CCC(=O)O)C(=O)N[C@H](C(=O)NCC(=O)N[C@@H](CO)C(=O)N[C@@H](CC(N)=O)C(=O)N[C@H](C(=O)N1C[C@H](O)C[C@H]1C(N)=O)[C@@H](C)O)C(C)C)[C@@H](C)O)N(C)C(=O)[C@H](C)NC(=O)CN(C)C(=O)[C@H](Cc1ccccc1)NC(=O)[C@H](C)NC(=O)[C@H](C)NC(=O)[C@H](CCCNC(=N)N)NC(=O)[C@H](CCC(N)=O)NC(=O)[C@H](CC(C)C)NC(=O)[C@H](Cc1ccccc1)NC(=O)[C@H](CCCC(=O)O)NC(=O)[C@H](C)NC(=O)[C@H](CC(C)C)NC(=O)[C@H](CCCNC(=N)N)NC(=O)[C@H](CCC(=O)O)NC(=O)[C@@H](NC(=O)[C@H](C)NC(=O)[C@@H]1CCCCNC(=O)C[C@H](NC(=O)[C@H](CCCNC(=N)N)NC(=O)CC[C@H](NC(=O)CCCCCCCCCCCCCCCCCCC(=O)O)C(=O)O)C(=O)NCC(=O)N[C@@H]([C@@H](C)O)C(=O)N[C@@H](C)C(=O)N[C@@H]([C@@H](C)O)C(=O)N1)[C@@H](C)O
B4: Compound 32 (peptide)
peptide: {C20 diacid-γGlu}-RDGTATKATERLA[Aad]FLQRGGF[Sar]A[NMeI]LSSTEVGSNT[Hyp]-NH2
modifications: lactam 2-7
SMILES: CC[C@H](C)[C@@H](C(=O)N[C@@H](CC(C)C)C(=O)N[C@@H](CO)C(=O)N[C@@H](CO)C(=O)N[C@H](C(=O)N[C@@H](CCC(=O)O)C(=O)N[C@H](C(=O)NCC(=O)N[C@@H](CO)C(=O)N[C@@H](CC(N)=O)C(=O)N[C@H](C(=O)N1C[C@H](O)C[C@H]1C(N)=O)[C@@H](C)O)C(C)C)[C@@H](C)O)N(C)C(=O)[C@H](C)NC(=O)CN(C)C(=O)[C@H](Cc1ccccc1)NC(=O)CNC(=O)CNC(=O)[C@H](CCCNC(=N)N)NC(=O)[C@H](CCC(N)=O)NC(=O)[C@H](CC(C)C)NC(=O)[C@H](Cc1ccccc1)NC(=O)[C@H](CCCC(=O)O)NC(=O)[C@H](C)NC(=O)[C@H](CC(C)C)NC(=O)[C@H](CCCNC(=N)N)NC(=O)[C@H](CCC(=O)O)NC(=O)[C@@H](NC(=O)[C@H](C)NC(=O)[C@@H]1CCCCNC(=O)C[C@H](NC(=O)[C@H](CCCNC(=N)N)NC(=O)CC[C@H](NC(=O)CCCCCCCCCCCCCCCCCCC(=O)O)C(=O)O)C(=O)NCC(=O)N[C@@H]([C@@H](C)O)C(=O)N[C@@H](C)C(=O)N[C@@H]([C@@H](C)O)C(=O)N1)[C@@H](C)O
B5: Compound 33 (peptide)
peptide: {C20 diacid-γGlu}-RDGTATKATERLA[Aad]FLQRANF[Sar]A[NMeI]LSSTEVGSNT[Hyp]-NH2
modifications: lactam 2-7
SMILES: CC[C@H](C)[C@@H](C(=O)N[C@@H](CC(C)C)C(=O)N[C@@H](CO)C(=O)N[C@@H](CO)C(=O)N[C@H](C(=O)N[C@@H](CCC(=O)O)C(=O)N[C@H](C(=O)NCC(=O)N[C@@H](CO)C(=O)N[C@@H](CC(N)=O)C(=O)N[C@H](C(=O)N1C[C@H](O)C[C@H]1C(N)=O)[C@@H](C)O)C(C)C)[C@@H](C)O)N(C)C(=O)[C@H](C)NC(=O)CN(C)C(=O)[C@H](Cc1ccccc1)NC(=O)[C@H](CC(N)=O)NC(=O)[C@H](C)NC(=O)[C@H](CCCNC(=N)N)NC(=O)[C@H](CCC(N)=O)NC(=O)[C@H](CC(C)C)NC(=O)[C@H](Cc1ccccc1)NC(=O)[C@H](CCCC(=O)O)NC(=O)[C@H](C)NC(=O)[C@H](CC(C)C)NC(=O)[C@H](CCCNC(=N)N)NC(=O)[C@H](CCC(=O)O)NC(=O)[C@@H](NC(=O)[C@H](C)NC(=O)[C@@H]1CCCCNC(=O)C[C@H](NC(=O)[C@H](CCCNC(=N)N)NC(=O)CC[C@H](NC(=O)CCCCCCCCCCCCCCCCCCC(=O)O)C(=O)O)C(=O)NCC(=O)N[C@@H]([C@@H](C)O)C(=O)N[C@@H](C)C(=O)N[C@@H]([C@@H](C)O)C(=O)N1)[C@@H](C)O
B6: Compound 34 (peptide)
peptide: {C20 diacid-γGlu}-RDGTATKATERLA[Aad]FLQRSSF[Sar]A[NMeI]PSSTEVGSNT[Hyp]-NH2
modifications: lactam 2-7
SMILES: CC[C@H](C)[C@@H](C(=O)N1CCC[C@H]1C(=O)N[C@@H](CO)C(=O)N[C@@H](CO)C(=O)N[C@H](C(=O)N[C@@H](CCC(=O)O)C(=O)N[C@H](C(=O)NCC(=O)N[C@@H](CO)C(=O)N[C@@H](CC(N)=O)C(=O)N[C@H](C(=O)N1C[C@H](O)C[C@H]1C(N)=O)[C@@H](C)O)C(C)C)[C@@H](C)O)N(C)C(=O)[C@H](C)NC(=O)CN(C)C(=O)[C@H](Cc1ccccc1)NC(=O)[C@H](CO)NC(=O)[C@H](CO)NC(=O)[C@H](CCCNC(=N)N)NC(=O)[C@H](CCC(N)=O)NC(=O)[C@H](CC(C)C)NC(=O)[C@H](Cc1ccccc1)NC(=O)[C@H](CCCC(=O)O)NC(=O)[C@H](C)NC(=O)[C@H](CC(C)C)NC(=O)[C@H](CCCNC(=N)N)NC(=O)[C@H](CCC(=O)O)NC(=O)[C@@H](NC(=O)[C@H](C)NC(=O)[C@@H]1CCCCNC(=O)C[C@H](NC(=O)[C@H](CCCNC(=N)N)NC(=O)CC[C@H](NC(=O)CCCCCCCCCCCCCCCCCCC(=O)O)C(=O)O)C(=O)NCC(=O)N[C@@H]([C@@H](C)O)C(=O)N[C@@H](C)C(=O)N[C@@H]([C@@H](C)O)C(=O)N1)[C@@H](C)O
B7: Compound 35 (peptide)
peptide: {C20 diacid-γGlu}-RDGTATKATERLA[Aad]FLQRSSF[Sar]A[NMeI]LSSTEVGSNT[Hyp]-NH2
modifications: lactam 2-7
B8: Compound 4 (peptide)
peptide: {C20 diacid-γGlu-γGlu}-RDGTAT[Orn]ATERLAHFLQRSSF[Sar]A[NMeI]LSSTEVGSNT[Hyp]-NH2
modifications: lactam 2-7
SMILES: CC[C@H](C)[C@@H](C(=O)N[C@@H](CC(C)C)C(=O)N[C@@H](CO)C(=O)N[C@@H](CO)C(=O)N[C@H](C(=O)N[C@@H](CCC(=O)O)C(=O)N[C@H](C(=O)NCC(=O)N[C@@H](CO)C(=O)N[C@@H](CC(N)=O)C(=O)N[C@H](C(=O)N1C[C@H](O)C[C@H]1C(N)=O)[C@@H](C)O)C(C)C)[C@@H](C)O)N(C)C(=O)[C@H](C)NC(=O)CN(C)C(=O)[C@H](Cc1ccccc1)NC(=O)[C@H](CO)NC(=O)[C@H](CO)NC(=O)[C@H](CCCNC(=N)N)NC(=O)[C@H](CCC(N)=O)NC(=O)[C@H](CC(C)C)NC(=O)[C@H](Cc1ccccc1)NC(=O)[C@H](Cc1c[nH]cn1)NC(=O)[C@H](C)NC(=O)[C@H](CC(C)C)NC(=O)[C@H](CCCNC(=N)N)NC(=O)[C@H](CCC(=O)O)NC(=O)[C@@H](NC(=O)[C@H](C)NC(=O)[C@@H]1CCCNC(=O)C[C@H](NC(=O)[C@H](CCCNC(=N)N)NC(=O)CC[C@H](NC(=O)CC[C@H](NC(=O)CCCCCCCCCCCCCCCCCCC(=O)O)C(=O)O)C(=O)O)C(=O)NCC(=O)N[C@@H]([C@@H](C)O)C(=O)N[C@@H](C)C(=O)N[C@@H]([C@@H](C)O)C(=O)N1)[C@@H](C)O

Tests used:
[1] = molecular target: recombinant human calcitonin receptor (hCT-R) (human), P30988; assay: cell-based or functional assay
[2] = molecular target: recombinant human amylin 3 receptor (hAMYR3) (human), P30988; assay: cell-based or functional assay
recombinant human amylin 3 receptor (hAMYR3) (human), P30988, sequence (P30988 25-474, chain 1 of 2): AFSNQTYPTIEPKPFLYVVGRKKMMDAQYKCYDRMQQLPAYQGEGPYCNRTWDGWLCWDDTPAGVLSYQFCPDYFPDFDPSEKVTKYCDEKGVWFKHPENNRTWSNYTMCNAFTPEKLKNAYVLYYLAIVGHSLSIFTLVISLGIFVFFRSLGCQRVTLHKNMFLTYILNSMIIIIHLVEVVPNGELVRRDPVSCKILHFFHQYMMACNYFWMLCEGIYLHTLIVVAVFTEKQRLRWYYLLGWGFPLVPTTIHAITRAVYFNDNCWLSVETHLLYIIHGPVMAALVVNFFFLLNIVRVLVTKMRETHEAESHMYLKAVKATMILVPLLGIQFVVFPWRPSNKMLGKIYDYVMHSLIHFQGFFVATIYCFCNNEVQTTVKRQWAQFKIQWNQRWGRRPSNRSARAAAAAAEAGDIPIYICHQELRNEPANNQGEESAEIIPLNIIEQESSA
recombinant human amylin 3 receptor (hAMYR3) (human), P30988, sequence (O60896 24-148, chain 2 of 2, further chain): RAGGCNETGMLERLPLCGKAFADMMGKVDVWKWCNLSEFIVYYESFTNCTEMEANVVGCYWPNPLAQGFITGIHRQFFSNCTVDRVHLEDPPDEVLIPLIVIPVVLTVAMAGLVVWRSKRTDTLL

recombinant human calcitonin receptor (hCT-R) (human), P30988, sequence (P30988 25-474): as the sequence (P30988 25-474, chain 1 of 2) above

Binder	hCT-R EC50 [nM] (cAMP formation, 1321N1 cells expressing hCT-R) [1]	hAMYR3 EC50 [nM] (cAMP formation, 1321N1 cells expressing hAMYR3) [2]
B1	1.07	0.312
B2	0.232	0.122
B3	0.227	0.066
B4	0.006	0.005
B5	0.019	0.009
B6	0.206	0.063
B7	0.066	0.028
B8	0.16	0.092
